This experiment addresses T1, SH2 domain of Crkl protein (residues 1-111), H33A variant (UniProt P46109 1-111, H33A).
T1 construct: Crkl adaptor protein, SH2 domain, residues 1-111, His33 replaced by alanine; Site-directed mutant of m1 (QuikChange); source: E. coli BL21 (DE3), purified (HisTrap nickel column, desalting); not shown: His tag, N-terminal, kept
Description: stopped-flow fluorescence kinetics (FRET); dansyl-Pax112-123 constant at 2 μM mixed with Crkl-SH2 2 to 10 μM (pseudo-first-order, kon); koff by displacement of the preincubated 2 µM complex with excess non-dansylated Pax112-123 (30 μM); 283 K; 50 mM sodium-HEPES pH 7.5, 0.5 M NaCl. The note with it: both partners purified.

Experimental findings from article PMC9332313, “Folding and Binding Mechanisms of the SH2 Domain from Crkl” (Biomolecules, 2022) are described below.

Square brackets hold non-standard residues; d marks the D form. Ends that are not written are not given here. * marks the point of attachment. pY = N[C@@H](Cc1ccc(OP(=O)(O)O)cc1)C(=O)O; Dansyl = CN(C)c1cccc2c(S(=O)(=O)*)cccc12

T1 sequence (P46109 1-111 H33A): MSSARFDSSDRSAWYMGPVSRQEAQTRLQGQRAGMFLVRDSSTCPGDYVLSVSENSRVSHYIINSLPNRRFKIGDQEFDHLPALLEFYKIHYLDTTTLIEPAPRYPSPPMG

B1: dansylated Pax_(112–123) peptide (Dans-GEEEHV-pY-SFPNK) (peptide)
peptide: Dansyl-GEEEHV[pY]SFPNK
notes: The dansyl group is the FRET acceptor of Trp14 of the SH2 domain; source: synthetic peptide, bought: GenScript
Usually Kd stands for the free concentration of one partner at which half of the binding sites on the other are occupied at equilibrium, for simple one-to-one binding. One may read the koff as the rate constant with which the complex falls apart. A low value points to slow dissociation. One may read the kon as the rate constant with which the complex forms. A high value points to faster complex formation. B1 came in with a Kd of 2300 ± 500 nM, a koff of 24.6 ± 3.2 s⁻¹ and an on-rate (kon) of 1.08e+07 ± 1.9e+06 M⁻¹ s⁻¹.
